Laboratory results from patent publication US20220162331A1 (CHENGDU CONMED BIOSCIENCES, published 2022).
Where a chain is given by its changes, count along the chain named.

B1: CD73 antibody 22C12 (antibody, V domains shown)
VH: QVQFQQSGAELARPGASVKLSCKASGYTFTGYWIQWVKQRPGQGLEWIGAIYPGDDDTRYTQKFKGRATLTADTSSSTAYMQLSSLASEDSAVYYCARGNWDDWDFDVWGAGTTVTVSS
VL: DIQMTQTTSSLSASLGDRVTISCRASQDISNYLNWYQQKPDGTVKLLIHYTSRLHSGVPSRFSGSGSGTDYSLTISNLEQEDIATYFCQQGDTLPWTFGGGTKLEIK
notes: Mouse variable regions on human IgG heavy chain constant region and human kappa constant region (chimeric IgG); also called Clone 22C12; mAb22C12
B2: CD73 antibody 2D4 (antibody, V domains shown)
VH: EVKLVESGGGLVQPGGSLKLSCATSGFTFSDYYMYWVRQTPEKRLEWVAYISNVGGSTYYPDTVKGRFTISRDNAKNTLYLQMSRLKSEDTAIYYCARGDGYYGYYFDVWGAGTTVTVSS
VL: QIVLTQSPAIMSASPGEKVTMTCSASSSVSYMHWYQQKSGTSPKRWIYDTSKLASGVPARFSGSGSGTSYSLTISSMEAEDAATYYCQQWSSNPYTFGGGTKLEIK
notes: also called Clone 2D4
B3: CD73 antibody 2H2 (antibody, V domains shown)
VH: B2 VH with I93M
VL: B2 VL with Q1E, I2N, A59T, Y70F
notes: also called Clone 2H2
B4: CD73 antibody 14E4 (antibody, V domains shown)
VH: QVQLQQSGPELVKPGASVKISCKASGYIFTNYYIHWVKQRPGQGLEWIGWIFPGSGNTKYSEKFKDKATLTADTSSSTAYMQLSSLTSEDSAVYFCAGLSDWGQGTTLTVSS
VL: DIQMTQSPSSLSASLGERVSLTCRASQDIGDRLIWLQQEPAGTFKRLIYATSSLDSGVPKRFSGSRSGSDYSLTISSLESEDFVDYYCLQYASSPWTFGGGTKLEIK
notes: Mouse variable regions on human IgG heavy chain constant region and human kappa constant region (chimeric IgG); also called Clone 14E4
B5: CD73 antibody 14H10 (antibody, V domains shown)
VH: QIQLQQSGAELARPGASVNLSCKASGYSFTSYWMQWLKQRPGQGLEWIGAIYPGDGDTRYTQKFKGKATLTADKSSSTAYMQLSSLASEDSAVYYCALFSYWGQGTLVTVSA
VL: B4 VL with D31S, R32S, I34N, A41D, S53T, S94F, W96Y
notes: Mouse variable regions on human IgG heavy chain constant region and human kappa constant region (chimeric IgG)
B6: CD73 antibody 7E10 (antibody, V domains shown)
VH: QVQFQQSGAELVRPGASVKLSCKASGYIFSSYWIQWVKQRPGQGLEWIGAIYPGDGDTRYTQKFKDKATLTADKSSSTAYMQLSSLASEDSAVYYCAGFASWGQGTLVTVSA
VL: B4 VL with D31S, R32S, I34N, A41N, F44I, V84A, W96Y
notes: Mouse variable regions on human IgG heavy chain constant region and human kappa constant region (chimeric IgG); also called Clone 7E10
B7: CD73 antibody 6A8 (antibody, V domains shown)
VH: B6 VH with V12A, A16T, S30T, V37I, D66G, D73E, S84R, V108L
VL: B4 VL with S20N, R32S, A41D, F44I, F83L, W96F
notes: Mouse variable regions on human IgG heavy chain constant region and human kappa constant region (chimeric IgG); also called Clone 6A8
B8: CD73 antibody 8A8 (antibody, V domains shown)
VH: B6 VH with V12A, S30T, V37I, D66G, S84R, V108L
VL: B4 VL with D31E, R32S, A41D, F44I, T74S, E81D, A92S, W96Y
notes: Mouse variable regions on human IgG heavy chain constant region and human kappa constant region (chimeric IgG); also called Clone 8A8
B9: humanized anti-CD73 antibody 22C12 VH-v10/VL-v2 (antibody, V domains shown)
VH: QVQLVQSGAEVKKPGASVKVSCKASGYTFTGYWIQWVRQAPGQGLEWMGAIYPGDEDTRYTQKFQGRVTMTADTSISTAYMELSRLRSDDTAVYYCARGNWDDWDFDVWGQGTTVTVSS
VL: DIQMTQSPSSLSASVGDRVTITCRASQDISNYLNWYQQKPGKAPKLLIHYTSRLHSGVPSRFSGSGSGTDYTLTISSLQPEDFATYYCQQGDTLPWTFGQGTKVEIK
notes: Human IgG1 CH1-CH3 constant region and kappa constant region; also called hu22C12 VHv10 (printed hu22C12 Vilv10) + hu22C12 Vkv2
B10: humanized anti-CD73 antibody 22C12 VH-v9/Vk-v2 (antibody, V domains shown)
VH: B9 VH with E56S
VL: B9 VL
notes: Human IgG1 CH1-CH3 constant region and kappa constant region; also called hu22C12 VHv9 (printed hu22C12V11v9) + hu22C12 Vkv2
B11: humanized anti-CD73 antibody 22C12 VH-v10/VL-v3 (antibody, V domains shown)
VH: B9 VH
VL: B9 VL with Y71F
notes: Human IgG1 CH1-CH3 constant region and kappa constant region; also called hu22C12 VHv10 (printed hu22C12 Vilv10) + hu22C12 Vkv3
B12: humanized anti-CD73 antibody 6G8 VH-v1/VK-v1 (antibody, V domains shown)
VH: QVTLRESGPALVKPTQTLTLTCTFSGFSLSTSGMGVGWIRQPPGKALEWLAHIWWDDDKYYNPSLKSRLTISKDTSKNQVVLTMTNMDPVDTATYYCARRERWAWFAYWGQGTLVTVSS
VL: DIQMTQSPSSLSASVGDRVTITCRASQNVFTNVAWYQQKPGKAPKVLIYSASYRYSGVPSRFSGSGSGTDFTLTISSLQPEDFATYFCQQYNSYPTFGQGTKLEIK
notes: Human IgG1 CH1-CH3 constant region and kappa constant region; also called hu6G8 VHv1 + hu6G8 Vkv1

Each binder was assayed against T1, human CD73 on Calu6 cells (human, UniProt P21589 27-549) (assay: FACS on Calu6 cells).
T1 construct: whole, on cells; Endogenous CD73 of the Calu6 cell line; also called CD73 on cell membrane surface
T1 sequence (looked up): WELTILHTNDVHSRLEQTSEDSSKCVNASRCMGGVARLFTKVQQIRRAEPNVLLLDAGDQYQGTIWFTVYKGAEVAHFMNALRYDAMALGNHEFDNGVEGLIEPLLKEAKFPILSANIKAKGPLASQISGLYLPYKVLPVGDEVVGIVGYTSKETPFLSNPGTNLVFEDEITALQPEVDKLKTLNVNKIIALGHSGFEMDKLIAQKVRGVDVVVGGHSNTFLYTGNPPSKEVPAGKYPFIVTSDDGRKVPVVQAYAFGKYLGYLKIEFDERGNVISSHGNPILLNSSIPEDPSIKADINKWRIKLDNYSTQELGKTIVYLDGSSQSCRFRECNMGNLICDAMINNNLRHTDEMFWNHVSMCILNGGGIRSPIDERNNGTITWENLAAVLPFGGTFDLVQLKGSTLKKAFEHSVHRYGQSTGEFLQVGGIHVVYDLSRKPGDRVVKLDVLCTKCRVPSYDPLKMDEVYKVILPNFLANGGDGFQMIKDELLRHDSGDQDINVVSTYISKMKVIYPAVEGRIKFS

Row | EC50 | Binder
1 | 1.2 nM | B1
2 | 1.25 nM | B2
3 | 0.93 nM | B3
4 | 2.56 nM | B4
5 | 2.28 nM | B5
6 | 2.52 nM | B6
7 | 3.51 nM | B7
8 | 0.61 nM | B8

What follows are binders tested against T1, human CD73 on Calu6 cells (assay: cell-based or functional assay).

Row | Inhibition of CD73 enzyme activity IC50(nM), Calu6 | Binder
9 | 0.97 nM | B1
10 | 0.47 nM | B2
11 | 4.03 nM | B3
12 | 4.57 nM | B4
13 | 1.71 nM | B5
14 | 7.66 nM | B6
15 | 6.63 nM | B7
16 | 4.89 nM | B8

Target: T1, human CD73 on Calu6 cells
Assay: cell-based or functional assay
Remark: another data set of the same source

Row | CD73 endocytosis ratio %, 60 minutes | CD73 endocytosis ratio %, 120 minutes | CD73 endocytosis ratio %, 480 minutes | CD73 endocytosis ratio %, 30 minutes | CD73 endocytosis ratio %, 240 minutes | Binder
17 | 6.1% | 11.1% | 13.2% | – | – | B1
18 | 28.1% | 29.7% | 36.9% | 19.1% | 39.5% | B2
19 | 27.4% | 45.8% | 49.3% | 22.4% | 33.4% | B3
20 | 19.3% | 2.6% | 2.6% | – | 12.7% | B4
21 | 33.1% | – | – | – | – | B5
22 | 25.1% | – | 6.2% | 9.9% | 6.6% | B6
23 | 16.2% | – | – | – | – | B7
24 | 25.6% | 27.3% | 40.5% | 21.2% | 44.2% | B8

The binders below were run against T2, human full-length CD73 on hCD73-CHO-1C11 cells (human, UniProt P21589 27-549) (assay: FACS on CHO-CD73-1C11 cells).
T2 construct: it may be a nucleotide entry; also called CHO-CD73-1C11
T2 sequence: T1 sequence (looked up)

Row | EC50 | Binder
25 | 1.43 nM | B1
26 | 1.76 nM | B2
27 | 1.53 nM | B3
28 | 6.55 nM | B4
29 | 2.62 nM | B5
30 | 8.59 nM | B6
31 | 11 nM | B7
32 | 1.47 nM | B8

What follows are binders tested against T3, recombinant human CD73 extracellular domain (Trp27-Lys546) with C-terminal 6-histidine tag (human, UniProt P21589 27-547) (assay: ELISA, plate coated with recombinant CD73 extracellular domain).
T3 construct: also called hCD73; hCD73-cHis
T3 sequence: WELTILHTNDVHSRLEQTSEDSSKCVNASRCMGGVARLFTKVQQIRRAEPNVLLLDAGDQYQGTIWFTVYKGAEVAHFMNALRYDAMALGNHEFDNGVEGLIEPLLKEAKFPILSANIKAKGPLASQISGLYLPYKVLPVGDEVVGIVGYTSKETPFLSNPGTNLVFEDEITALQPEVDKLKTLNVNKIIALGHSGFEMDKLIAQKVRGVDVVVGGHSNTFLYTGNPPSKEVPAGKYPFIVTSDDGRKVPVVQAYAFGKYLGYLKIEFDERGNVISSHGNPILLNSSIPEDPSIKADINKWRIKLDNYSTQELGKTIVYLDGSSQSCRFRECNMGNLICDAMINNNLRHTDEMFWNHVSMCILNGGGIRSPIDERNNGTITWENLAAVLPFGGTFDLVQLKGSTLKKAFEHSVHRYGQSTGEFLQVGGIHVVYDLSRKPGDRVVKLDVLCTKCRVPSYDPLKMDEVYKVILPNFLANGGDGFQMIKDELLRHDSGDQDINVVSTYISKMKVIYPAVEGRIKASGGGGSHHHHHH

Row | EC50 | Binder
33 | 0.04 nM | B1
34 | 0.02 nM | B2
35 | 0.02 nM | B3
36 | 0.06 nM | B4
37 | 0.03 nM | B5
38 | 0.07 nM | B6
39 | 0.08 nM | B7
40 | 0.02 nM | B8

Target: T4, recombinant cynomolgus monkey CD73 extracellular domain (Trp27-Lys546) (cynomolgus monkey, UniProt P21589 27-547 (human entry))
T4 construct: also called cynoCD73; recombinant monkey CD73 extracellular domain
T4 chain: T3 sequence with M199T, T350A, V466I
Assay: as above

Row | EC50 | Binder
41 | 0.05 nM | B1
42 | 0.02 nM | B2
43 | 0.02 nM | B3
44 | 0.18 nM | B4
45 | 0.07 nM | B5
46 | 0.11 nM | B6
47 | 0.09 nM | B7
48 | 0.02 nM | B8

The binders below were run against T3, recombinant human CD73 extracellular … (assay: SPR, Biacore T200, antibody captured on Protein A chip, hCD73 ECD as analyte, 1:1 Langmuir).
Description: The affinity of CD73 antibody was determined by plasma surface resonance on Biacore T200. At room temperature, the antibody concentration was diluted to 0.5 μg/mL with 1×HBS-EP buffer (prepared from HBS-EP+Buffer 10×, GE, BR1008-26), the Protein A chip (GE, 29-1275-56) was coated with a flow rate of 10 μL per minute, the capture time was about 40 seconds, and the coated RU value was controlled to be about 100 RU. The recombinant human CD73 extracellular domain protein was diluted to 3 μg/mL with 1×HBS-EP buffer, diluted to two-fold gradient, a total of 6 concentrations, 200 μL of each concentration gradient. The 1×HBS-EP buffer was used as a control, the flow rate was 30 μl/min, the binding time was 120 seconds, and the dissociation time was 600 seconds. The affinity was fitted using Langmuir 1:1 Kinetic theoretical model and analyzed by Biacore T200 Evaluation Software (Table 3).

Row | Kd | koff | kon | Binder
49 | 0.134 nM | 0.000225 s⁻¹ | 1.68e+06 M⁻¹ s⁻¹ | B9
50 | 0.135 nM | 0.000165 s⁻¹ | 1.22e+06 M⁻¹ s⁻¹ | B10
51 | 0.0956 nM | 0.000179 s⁻¹ | 1.87e+06 M⁻¹ s⁻¹ | B11
52 | 0.272 nM | 0.000106 s⁻¹ | 389000 M⁻¹ s⁻¹ | B12
